B1: Hairpin Ribozyme (parent)
chain: GUCCUCUUUCACGUGCGCGUGAAAGAGAGAAGUGAACCAGAGAAACACACGUUGUGGUAUAUUACCUGGUA

Variants of: B1
Assay: self-cleavage, relative activity (ratio to wild type); higher = more cleavage; co-transcriptional

Row | Variant | self-cleavage
1 | GUCCUCUUUCACGUGCGGGUGAAAGAGAGAAGUGAACCAGAGAAACUCACGUUGUGGUAUAUUACCUGGUA [C18G A47U] | 0.0785
2 | GUCCUCUUUCACGUGCGGGUGAAAGAGAGAAGUGAACCAGAGAAACACACGUUGUGGUGUAUUACCUGGUA [C18G A59G] | 0.284
3 | GUCCUCUUUCACGUGCGGGUGAAAGAGAGAAGUGAACCAGAGAAACACACGUUGUGGUUUAUUACCUGGUA [C18G A59U] | 0.239
4 | GUCCUCUUUCACGUGCGGGUGAAAGAGAGAAGUGAACCAGAGAAACACACGUUGUGGUAUUUUACCUGGUA [C18G A61U] | 0.247
5 | GUCCUCUUUCACGUGCGGGUGAAAGAGAGAAGUGAACCAGAGAAACACACGUUGUGGUAUAUUACCUGGUG [C18G A71G] | 0.932
6 | GUCCUCUUUCACGUGCGGGUGAAAGAGAGAAGUGAACCAGAGAAAAACACGUUGUGGUAUAUUACCUGGUA [C18G C46A] | 0.0797
7 | GUCCUCUUUCACGUGCGGGUGAAAGAGAGAAGUGAACCAGAGAAAGACACGUUGUGGUAUAUUACCUGGUA [C18G C46G] | 0.0987
8 | GUCCUCUUUCACGUGCGGGUGAAAGAGAGAAGUGAACCAGAGAAACAAACGUUGUGGUAUAUUACCUGGUA [C18G C48A] | 0.146
9 | GUCCUCUUUCACGUGCGGGUGAAAGAGAGAAGUGAACCAGAGAAACAGACGUUGUGGUAUAUUACCUGGUA [C18G C48G] | 0.138
10 | GUCCUCUUUCACGUGCGGGUGAAAGAGAGAAGUGAACCAGAGAAACAUACGUUGUGGUAUAUUACCUGGUA [C18G C48U] | 0.11
11 | GUCCUCUUUCACGUGCGGGUGAAAGAGAGAAGUGAACCAGAGAAACACACGUUGUGGUAUAUUACAUGGUA [C18G C66A] | 0.194
12 | GUCCUCUUUCACGUGCGGGUGAAAGAUAGAAGUGAACCAGAGAAACACACGUUGUGGUAUAUUACCUGGUA [C18G G27U] | 0.199
13 | GUCCUCUUUCACGUGCGGGUGAAAGAGAUAAGUGAACCAGAGAAACACACGUUGUGGUAUAUUACCUGGUA [C18G G29U] | 0.201
14 | GUCCUCUUUCACGUGCGGGUGAAAGAGAGAAGUAAACCAGAGAAACACACGUUGUGGUAUAUUACCUGGUA [C18G G34A] | 1.23
15 | GUCCUCUUUCACGUGCGGGUGAAAGAGAGAAGUGAACCAAAGAAACACACGUUGUGGUAUAUUACCUGGUA [C18G G40A] | 0.344
16 | GUCCUCUUUCACGUGCGGGUGAAAGAGAGAAGUGAACCAGAGAAACACACAUUGUGGUAUAUUACCUGGUA [C18G G51A] | 0.933
17 | GUCCUCUUUCACGUGCGGGUGAAAGAGAGAAGUGAACCAGAGAAACACACUUUGUGGUAUAUUACCUGGUA [C18G G51U] | 0.953
18 | GUCCUCUUUCACGUGCGGGUGAAAGAGAGAAGUGAACCAGAGAAACACACGUUCUGGUAUAUUACCUGGUA [C18G G54C] | 0.471
19 | GUCCUCUUUCACGUGCGGGUGAAAGAGAGAAGUGAACCAGAGAAACACACGUUGUGGUAUAUUACCUAGUA [C18G G68A] | 0.268

Row | Variant | self-cleavage
20 | GUCCUCUUUCACGUGCGGGUGAAAGAGAGAAGUGAACCAGAGAAACACACGUUGUGGUAUAUUACCUGAUA [C18G G69A] | 0.378
21 | GUCCUCUUUCACGUGCGGGCGAAAGAGAGAAGUGAACCAGAGAAACACACGUUGUGGUAUAUUACCUGGUA [C18G U20C] | 0.923
22 | GUCCUCUUUCACGUGCGGGUGAAAGAGAGAAGAGAACCAGAGAAACACACGUUGUGGUAUAUUACCUGGUA [C18G U33A] | 0.169
23 | GUCCUCUUUCACGUGCGGGUGAAAGAGAGAAGUGAACCAGAGAAACACACGGUGUGGUAUAUUACCUGGUA [C18G U52G] | 0.538
24 | GUCCUCUUUCACGUGCGGGUGAAAGAGAGAAGUGAACCAGAGAAACACACGUAGUGGUAUAUUACCUGGUA [C18G U53A] | 1.02
25 | GUCCUCUUUCACGUGCGGGUGAAAGAGAGAAGUGAACCAGAGAAACACACGUCGUGGUAUAUUACCUGGUA [C18G U53C] | 0.806
26 | GUCCUCUUUCACGUGCGGGUGAAAGAGAGAAGUGAACCAGAGAAACACACGUGGUGGUAUAUUACCUGGUA [C18G U53G] | 0.819
27 | GUCCUCUUUCACGUGCGGGUGAAAGAGAGAAGUGAACCAGAGAAACACACGUUGUGGAAUAUUACCUGGUA [C18G U58A] | 0.632
28 | GUCCUCUUUCACGUGCGGGUGAAAGAGAGAAGUGAACCAGAGAAACACACGUUGUGGGAUAUUACCUGGUA [C18G U58G] | 0.89
29 | GUCCUCUUUCACGUGCGGGUGAAAGAGAGAAGUGAACCAGAGAAACACACGUUGUGGUAUAUAACCUGGUA [C18G U63A] | 0.147
30 | GUCCUCUUUCACGUGCGGGUGAAAGAGAGAAGUGAACCAGAGAAACACACGUUGUGGUAUAUUACCAGGUA [C18G U67A] | 0.229
31 | GUCCUCUUUCACGUGCGGGUGAAAGAGAGAAGUGAACCAGAGAAACACACGUUGUGGUAUAUUACCCGGUA [C18G U67C] | 0.212
32 | GUCCUCUUUCACGUGCGGGUGAAAGAGAGAAGUGAACCAGAGAAACACACGUUGUGGUAUAUUACCUGGAA [C18G U70A] | 0.885
33 | GUCCUCUUUCACGUGCGUGUGAAAGAGAGAAGUGAACCAGAGAAACACACGUUGUGGUAUAUUACCUGGUA [C18U] | 1.06
34 | GUCCUCUUUCACGUGCGUGUGAGAGAGAGAAGUGAACCAGAGAAACACACGUUGUGGUAUAUUACCUGGUA [C18U A23G] | 0.857
35 | GUCCUCUUUCACGUGCGUGUGAACGAGAGAAGUGAACCAGAGAAACACACGUUGUGGUAUAUUACCUGGUA [C18U A24C] | 1.21
36 | GUCCUCUUUCACGUGCGUGUGAAAGAGGGAAGUGAACCAGAGAAACACACGUUGUGGUAUAUUACCUGGUA [C18U A28G] | 1.26
37 | GUCCUCUUUCACGUGCGUGUGAAAGAGAGCAGUGAACCAGAGAAACACACGUUGUGGUAUAUUACCUGGUA [C18U A30C] | 0.21
38 | GUCCUCUUUCACGUGCGUGUGAAAGAGAGGAGUGAACCAGAGAAACACACGUUGUGGUAUAUUACCUGGUA [C18U A30G] | 0.151

Source: the RNAGym collection of RNA variant scans (doi:10.7554/elife.80360)
